This note sets out measurements from the supplement of paper PMC9112550, “Optimization of the antimicrobial peptide Bac7 by deep mutational scanning” (BMC Biology, 2022).
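Also: peptides expressed intracellularly from a pBAD plasmid library in pooled LB shake-flask culture, induced with 0.3% L-arabinose, DNA abundance read by NGS, three biological replicates, DESeq2 with apeglm shrinkage.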

For the series, the system named is Escherichia coli TOP10. In words: shrunken log2 fold change of peptide-encoding DNA abundance (4.5 h post-induction vs induction); higher = less antimicrobial activity (less host growth inhibition). The conditions noted are these: time post-induction: 4.5 h; library: site-saturation at positions 5, 18, 19, 20.
RRIRDRPPRLPRPRPRPVYSPRP: the “shrunken log2 fold change” value was found to be 0.0356.

As to RRIRERPPRLPRPRPRPCATPRP, the “shrunken log2 fold change” value amounted to 0.0398.

As to RRIRERPPRLPRPRPRPEYDPRP, the “shrunken log2 fold change” value was -0.00663. As for RRIRWRPPRLPRPRPRPSKNPRP, the “shrunken log2 fold change” value was -0.158. For RRIRARPPRLPRPRPRPSHCPRP the value was -0.101; for RRIRARPPRLPRPRPRPVAHPRP, 0.159. As for RRIRLRPPRLPRPRPRPGDVPRP, the “shrunken log2 fold change” value turned out to be 0.0737.

As for RRIRSRPPRLPRPRPRPDPKPRP, the “shrunken log2 fold change” value is -0.00687.

As for RRIRTRPPRLPRPRPRPNTTPRP, the “shrunken log2 fold change” value was -0.164. For RRIRCRPPRLPRPRPRPPPFPRP the value was 2.05; for RRIRKRPPRLPRPRPRPRSLPRP, -0.00364; for RRIRLRPPRLPRPRPRPIWDPRP, -0.0847.

With RRIRERPPRLPRPRPRPVTQPRP, the “shrunken log2 fold change” value is -0.282. To RRIRRRPPRLPRPRPRPVCYPRP belongs 0.103; to RRIRHRPPRLPRPRPRPAWWPRP, 0.157. Take RRIRFRPPRLPRPRPRPSGLPRP: the “shrunken log2 fold change” value is -0.237.

Regarding RRIRFRPPRLPRPRPRPWIPPRP, the “shrunken log2 fold change” value was -0.432. For RRIRCRPPRLPRPRPRPMAQPRP, the “shrunken log2 fold change” value is -0.0404. For RRIRKRPPRLPRPRPRPCKCPRP the value was 0.0183. To RRIRTRPPRLPRPRPRPHHEPRP belongs -0.103; to RRIRNRPPRLPRPRPRPIWWPRP, -0.141; to RRIRERPPRLPRPRPRPGLHPRP, -0.124. For RRIRMRPPRLPRPRPRPDLHPRP the value was 0.0663; for RRIRGRPPRLPRPRPRPILRPRP, 0.161; for RRIRHRPPRLPRPRPRPPVSPRP, -0.0862. Turning to RRIRMRPPRLPRPRPRPHAPPRP, the “shrunken log2 fold change” value came out at 0.469. As for RRIRSRPPRLPRPRPRPATRPRP, the “shrunken log2 fold change” value is 0.415. To RRIRARPPRLPRPRPRPQFAPRP belongs 0.402. Turning to RRIRARPPRLPRPRPRPQCRPRP, the “shrunken log2 fold change” value was -0.161.

For RRIRVRPPRLPRPRPRPKTFPRP, the “shrunken log2 fold change” value is -0.0753. As for RRIRERPPRLPRPRPRPEETPRP, the “shrunken log2 fold change” value was -0.0248. To RRIRDRPPRLPRPRPRPKLCPRP belongs -0.0785.

As for RRIRCRPPRLPRPRPRPPGNPRP, the “shrunken log2 fold change” value worked out at 0.0392. As to RRIRCRPPRLPRPRPRPCSAPRP, the “shrunken log2 fold change” value was -0.277. To RRIRTRPPRLPRPRPRPKEYPRP belongs -1.07; to RRIRPRPPRLPRPRPRPAEGPRP, 0.394.

As for RRIRDRPPRLPRPRPRPTHGPRP, the “shrunken log2 fold change” value worked out at 0.117. To RRIRCRPPRLPRPRPRPFKPPRP belongs -0.302. For RRIRVRPPRLPRPRPRPGQAPRP the value was -0.0106. In the case of RRIRKRPPRLPRPRPRPQGDPRP, the “shrunken log2 fold change” value was 0.0739.

RRIRCRPPRLPRPRPRPRYMPRP: the “shrunken log2 fold change” value was -0.402.

For the sequence RRIRWRPPRLPRPRPRPMIRPRP, the “shrunken log2 fold change” value was -0.348. Consider RRIRDRPPRLPRPRPRPAILPRP, for which the “shrunken log2 fold change” value amounted to 0.099. To RRIRERPPRLPRPRPRPSWQPRP belongs -0.00861; to RRIRIRPPRLPRPRPRPCDNPRP, -0.178; to RRIRERPPRLPRPRPRPQCLPRP, -0.116. To RRIRTRPPRLPRPRPRPPKCPRP belongs -0.339; to RRIRCRPPRLPRPRPRPGWHPRP, 0.269; to RRIRWRPPRLPRPRPRPNHNPRP, -0.681. For RRIRPRPPRLPRPRPRPNCNPRP the value was -0.518; for RRIRHRPPRLPRPRPRPWKWPRP, -0.00968; for RRIRNRPPRLPRPRPRPQTWPRP, -0.183. Consider RRIRCRPPRLPRPRPRPGLGPRP, for which the “shrunken log2 fold change” value was 0.512. As for RRIRGRPPRLPRPRPRPVRVPRP, the “shrunken log2 fold change” value came to 0.856.

RRIRRRPPRLPRPRPRPRIRPRP: the “shrunken log2 fold change” value stood at 0.179. To RRIRWRPPRLPRPRPRPKWFPRP belongs 0.257; to RRIRSRPPRLPRPRPRPEAPPRP, 0.67; to RRIRERPPRLPRPRPRPMVCPRP, -0.0478. To RRIRKRPPRLPRPRPRPGCIPRP belongs 0.424; to RRIRCRPPRLPRPRPRPFIAPRP, -0.613; to RRIRSRPPRLPRPRPRPYTWPRP, -0.989. To RRIRIRPPRLPRPRPRPLWSPRP belongs -0.245; to RRIRDRPPRLPRPRPRPFKQPRP, -0.235; to RRIRMRPPRLPRPRPRPKQLPRP, 0.83. With RRIRFRPPRLPRPRPRPWTFPRP, the “shrunken log2 fold change” value is -0.797. For RRIRNRPPRLPRPRPRPPQNPRP, the “shrunken log2 fold change” value was -0.0172. For RRIRPRPPRLPRPRPRPFWQPRP the value was 0.00477. To RRIRFRPPRLPRPRPRPMYSPRP belongs -0.73; to RRIRRRPPRLPRPRPRPNLGPRP, 0.00298; to RRIRWRPPRLPRPRPRPVIDPRP, 0.373. As for RRIRHRPPRLPRPRPRPHEQPRP, the “shrunken log2 fold change” value was -0.0118. In the case of RRIRMRPPRLPRPRPRPKACPRP, the “shrunken log2 fold change” value was determined as 0.558.

As for RRIRGRPPRLPRPRPRPQAYPRP, the “shrunken log2 fold change” value is -0.0978. To RRIRWRPPRLPRPRPRPEWSPRP belongs 0.0628. For RRIRERPPRLPRPRPRPFSWPRP the value was 0.0616; for RRIRHRPPRLPRPRPRPLMQPRP, -0.248; for RRIRCRPPRLPRPRPRPLDIPRP, -0.422.

Regarding RRIRTRPPRLPRPRPRPQYDPRP, the “shrunken log2 fold change” value is -0.0819. For RRIRARPPRLPRPRPRPYVLPRP the value was -0.347. To RRIRFRPPRLPRPRPRPFTWPRP belongs -0.816.

Turning to RRIRMRPPRLPRPRPRPNEHPRP, the “shrunken log2 fold change” value was determined as 0.0235. For RRIRWRPPRLPRPRPRPCAIPRP, the “shrunken log2 fold change” value came to 0.027.

With RRIRPRPPRLPRPRPRPFHLPRP, the “shrunken log2 fold change” value was -0.54. In the case of RRIRLRPPRLPRPRPRPGNMPRP, the “shrunken log2 fold change” value was -0.157.

On to RRIRGRPPRLPRPRPRPCMYPRP, for which the “shrunken log2 fold change” value came out at 0.013.

For RRIRNRPPRLPRPRPRPCHSPRP, the “shrunken log2 fold change” value is -0.539. Turning to RRIRMRPPRLPRPRPRPFEHPRP, the “shrunken log2 fold change” value was -0.327. For the sequence RRIRMRPPRLPRPRPRPWPHPRP, the “shrunken log2 fold change” value was determined as 0.512.

On to RRIRYRPPRLPRPRPRPTYNPRP, for which the “shrunken log2 fold change” value is -1.32.

On to RRIRQRPPRLPRPRPRPCFVPRP, for which the “shrunken log2 fold change” value was -0.0859.

For the sequence RRIRDRPPRLPRPRPRPTMFPRP, the “shrunken log2 fold change” value was found to be 0.0915. For RRIRKRPPRLPRPRPRPPLSPRP the value was 0.832; for RRIRQRPPRLPRPRPRPKNEPRP, -0.136. For RRIRIRPPRLPRPRPRPENQPRP the value was -0.473. To RRIRVRPPRLPRPRPRPRCPPRP belongs -0.00901. For the sequence RRIRMRPPRLPRPRPRPNWWPRP, the “shrunken log2 fold change” value was -0.0136. For RRIRWRPPRLPRPRPRPDQQPRP the value was 0.0822. RRIRNRPPRLPRPRPRPRCLPRP: the “shrunken log2 fold change” value is -0.157. To RRIRMRPPRLPRPRPRPTWDPRP belongs 0.762; to RRIRCRPPRLPRPRPRPPYAPRP, 0.141. Take RRIRMRPPRLPRPRPRPEVNPRP: the “shrunken log2 fold change” value was 0.156. To RRIRYRPPRLPRPRPRPSLCPRP belongs -0.109. For RRIRGRPPRLPRPRPRPDHYPRP, the “shrunken log2 fold change” value is -0.203. In the case of RRIRHRPPRLPRPRPRPAGCPRP, the “shrunken log2 fold change” value is 0.242. To RRIRARPPRLPRPRPRPILAPRP belongs 0.147; to RRIRVRPPRLPRPRPRPMWGPRP, -0.174.

As to RRIRVRPPRLPRPRPRPCEGPRP, the “shrunken log2 fold change” value is -0.0149. To RRIRARPPRLPRPRPRPHYSPRP belongs 0.141.

For RRIRGRPPRLPRPRPRPTSGPRP, the “shrunken log2 fold change” value was 0.917.

As to RRIRARPPRLPRPRPRPSCDPRP, the “shrunken log2 fold change” value is 0.323.

RRIRSRPPRLPRPRPRPPACPRP: the “shrunken log2 fold change” value worked out at 0.185.

Consider RRIRSRPPRLPRPRPRPYWPPRP, for which the “shrunken log2 fold change” value is -0.642.

For RRIRPRPPRLPRPRPRPFSRPRP, the “shrunken log2 fold change” value is -0.099.

With RRIRGRPPRLPRPRPRPRCWPRP, the “shrunken log2 fold change” value amounted to 1.19. Turning to RRIRIRPPRLPRPRPRPEQKPRP, the “shrunken log2 fold change” value was determined as 2.45. For RRIRNRPPRLPRPRPRPLSGPRP the value was 0.0992; for RRIRSRPPRLPRPRPRPCQEPRP, -0.0101. To RRIRHRPPRLPRPRPRPFYCPRP belongs -0.946; to RRIRDRPPRLPRPRPRPGCVPRP, 0.616; to RRIRYRPPRLPRPRPRPDFLPRP, -0.542.

With RRIRWRPPRLPRPRPRPRQGPRP, the “shrunken log2 fold change” value amounted to 0.582. To RRIRKRPPRLPRPRPRPRCLPRP belongs 0.226; to RRIRWRPPRLPRPRPRPMAQPRP, 0.218.

On to RRIRNRPPRLPRPRPRPLFTPRP, for which the “shrunken log2 fold change” value was -0.0916. For RRIRSRPPRLPRPRPRPHKEPRP the value was -0.00927.
